In patent publication US20250092146A1, “ANTI-CCR8 ANTIBODIES, CONJUGATES, AND USES THEREOF” (Abilita Bio, Inc., priority 2023, published 2025):

Target: T1, HuT-78 cells that naturally express human CCR8 (Homo sapiens, UniProt P51685)
T1 construct: HuT-78 cells that naturally express human CCR8 were used as target cells; endogenous in cells; host or cells: HuT-78
Test: Flow cytometry binding of yeast-display optimized VHH-Fc antibodies to HuT-78 cells
Settings: Table 13; for EC50: clones tested as VHH-Fc fusions (human IgG1 Fc), HuT-78 cells; for Normalized Bmax (%): normalized to VHH-1 or VHH-2 depending on clone family
Text: Top VHH sequences were chosen from the FACS sorted populations based on an analysis of improved binding performance relative to the parental sequences and evidence of sequence enrichment by NGS. Candidate VHH were then cloned as VHH-Fc fusions to the short hinge of the IgG1 Fc domain (SEQ ID NO: 34), expressed in HEK293 cells as described earlier and purified for binding evaluation. Bmax values are shown as normalized to VHH-1 or VHH-2 depending on the clone family. […] Mutations are referenced by position according to the IMGT definition.

T1 sequence (P51685 whole entry): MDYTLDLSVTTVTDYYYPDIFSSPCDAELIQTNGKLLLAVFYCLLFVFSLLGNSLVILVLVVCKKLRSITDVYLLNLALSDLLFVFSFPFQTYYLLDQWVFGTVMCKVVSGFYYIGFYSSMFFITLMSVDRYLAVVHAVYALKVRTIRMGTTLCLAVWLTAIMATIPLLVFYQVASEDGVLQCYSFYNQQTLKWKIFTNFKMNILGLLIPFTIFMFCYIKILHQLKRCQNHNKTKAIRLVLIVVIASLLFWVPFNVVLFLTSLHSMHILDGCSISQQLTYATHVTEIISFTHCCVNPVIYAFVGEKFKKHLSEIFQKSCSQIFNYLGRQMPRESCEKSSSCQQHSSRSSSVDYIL

Molecule	EC50 [nM]	Normalized Bmax (%)
VHH-1.3-3: VHH-1.3 variant I39Y, G40S, R55W, SEQ ID NO: 188; tested as Fc fusion (protein) VHH: EVQLVESGGGLVQPGGSLRLSCAASGSTSSIRRYSWYRQAPGKGRELVAWFSSGGGTNYADSVKGRFTISGDNSKNTMYLQMNSLRAEDTAVYYCSARRLLGTSRVDYWGQGTQVTVSS	1.81	104.4
VHH-1.3-16: VHH-1.3 variant S35T, R37V, G64S, R108I, SEQ ID NO: 201; tested as Fc fusion (protein) VHH: EVQLVESGGGLVQPGGSLRLSCAASGSTSTIVRIGWYRQAPGKGRELVARFSSGGSTNYADSVKGRFTISGDNSKNTMYLQMNSLRAEDTAVYYCSARILLGTSRVDYWGQGTTVTVSS	3.1	79.0
VHH-1.3-10: VHH-1.3 variant T65I, L110V, SEQ ID NO: 195; tested as Fc fusion (protein) VHH: QVQLQESGGGLVQPGGSLRLSCAASGSTSSIRRIGWYRQAPGKGRELVARFSSGGGINYADSVKGRFTISGDNSKNTMYLQMNSLRAEDTAVYYCSARRLVGTSRVDYWGQGTQVTVSS	1.3	125.4
VHH-1.3-12: VHH-1.3 variant S28F, G64T, L110Y, SEQ ID NO: 197; tested as Fc fusion (protein) VHH: EVQLVESGGGLVQPGGSLRLSCAASGFTSSIRRIGWYRQAPGKGRELVARFSSGGTTNYADSVKGRFTISGDNSKNTMYLQMNSLRAEDTAVYYCSARRLYGTSRVDYWGQGTQVTVSS	1.24	79.6
VHH-1.3-17: VHH-1.3 variant R37V, R55H, R108I, N83K, SEQ ID NO: 202; tested as Fc fusion (protein) VHH: EVQLVESGGGLVQPGGSLRLSCAVSGSTSSIVRIGWYRQAPGKGRELVAHFSSGGGTNYADSVKGRFTISGDKSKNTMYLQMNSLRAEDTAVYYCSARILLGTSRVDYWGQGTTVTVSS	0.67	72.8
VHH-1.3-7: VHH-1.3 variant A25V, R55H, N82K, SEQ ID NO: 192; tested as Fc fusion (protein) VHH: EVQLVESGGGLVQPGGSLRLSCAVSGSTSSIRRIGWYRQAPGKGRELVAHFSSGGGTNYADSVKGRFTISGDKSKNTMYLQMNSLRAEDTAVYYCSARRLLGTSRVDYWGQGTTVTVSS	0.56	111.8
VHH-1.3-21: VHH-1.3 variant A25V, R38G, S57I, G81A, SEQ ID NO: 206; tested as Fc fusion (protein) VHH: EVQLVESGGGLVQPGGSLRLSCAVSGSTSSIRGIGWYRQAPGKGRELVARFISGGGTNYADSVKGRFTISADNSKNTMYLQMNSLRAEDTAVYYCSARRLLGTSRVDYWGQGTQVTVSS	1.62	133.9
VHH-1.3-15: VHH-1.3 variant S58G, SEQ ID NO: 200; tested as Fc fusion (protein) VHH: EVQLVESGGGLVQPGGSLRLSCAASGSTSSIRRIGWYRQAPGKGRELVARFSGGGGTNYADSVKGRFTISGDNSKNTMYLQMNSLRAEDTAVYYCSARRLLGTSRVDYWGQGTTVTVSS	2.82	107.1
VHH-1.3-14: VHH-1.3 variant G64S, L110V, SEQ ID NO: 199; tested as Fc fusion (protein) VHH: EVQLVESGGGLVQPGGSLRLSCAASGSTSSIRRIGWYRQAPGKGRELVARFSSGGSINYADSVKGRFTISGDNSKNTMYLQMNSLRAEDTAVYYCSARRLVGTSRVDYWGQGTQVTVSS	0.9	131.9
VHH-1.3-6: VHH-1.3 variant R55H, SEQ ID NO: 191; tested as Fc fusion (protein) VHH: EVQLVESGGGLVQPGGSLRLSCAASGSTSSIRRIGWYRQAPGKGRELVAHFSSGGGTNYADSVKGRFTISGDNSKNTMYLQMNSLRAEDTAVYYCSARRLLGTSRVDYWGQGTTVTVSS	3.75	97.0
VHH-1.3-20: VHH-1.3 variant A25V, R38G, S57I, R108I, SEQ ID NO: 205; tested as Fc fusion (protein) VHH: EVQLVESGGGLVQPGGSLRLSCAVSGSTSSIRGIGWYRQAPGKGRELVARFISGGGTNYADSVKGRFTISGDNSKNTMYLQMNSLRAEDTAVYYCSARILLGTSRVDYWGQGTQVTVSS	0.49	107.6
VHH-1.3-11: VHH-1.3 variant G64T, SEQ ID NO: 196; tested as Fc fusion (protein) VHH: QVQLQESGGGLVQPGGSLRLSCAASGSTSSIRRIGWYRQAPGKGRELVARFSSGGTINYADSVKGRFTISGDNSKNTMYLQMNSLRAEDTAVYYCSARRLLGTSRVDYWGQGTQVTVSS	0.61	79.6
VHH-1.3-13: VHH-1.3 variant A25V, R38G, S57I, SEQ ID NO: 198; tested as Fc fusion (protein) VHH: EVQLVESGGGLVQPGGSLRLSCAVSGSTSSIRGIGWYRQAPGKGRELVARFISGGGTNYADSVKGRFTISGDNSKNTMYLQMNSLRAEDTAVYYCSARRLLGTSRVDYWGQGTQVTVSS	0.38	91.1
VHH-1.3-18: VHH-1.3 variant A25V, R38G, S57I, N83K, SEQ ID NO: 203; tested as Fc fusion (protein) VHH: EVQLVESGGGLVQPGGSLRLSCAVSGSTSSIRGIGWYRQAPGKGRELVARFISGGGTNYADSVKGRFTISGDKSKNTMYLQMNSLRAEDTAVYYCSARRLLGTSRVDYWGQGTTVTVSS	0.31	113.4
VHH-1.3-4: VHH-1.3 variant R38T, R108I, SEQ ID NO: 189; tested as Fc fusion (protein) VHH: EVQLVESGGGLVQPGGSLRLSCAASGSTSSIRTIGWYRQAPGKGRELVARFSSGGGTNYADSVKGRFTISGDNSKNTMYLQMNSLRAEDTAVYYCSARILLGTSRVDYWGQGTTVTVSS	7.68	82.4
VHH-1.3-5: VHH-1.3 variant R55G, SEQ ID NO: 190; tested as Fc fusion (protein) VHH: EVQLVESGGGLVQPGGSLRLSCAASGSTSSIRRIGWYRQAPGKGRELVAGFSSGGGTNYADSVKGRFTISGDNSKNTMYLQMNSLRAEDTAVYYCSARRLLGTSRVDYWGQGTTVTVSS	4.42	90.1
VHH-1.3-1: VHH-1.3 variant G64S, SEQ ID NO: 186; tested as Fc fusion (protein) VHH: EVQLVESGGGLVQPGGSLRLSCAASGSTSSIRRIGWYRQAPGKGRELVARFSSGGSTNYADSVKGRFTISGDNSKNTMYLQMNSLRAEDTAVYYCSARRLLGTSRVDYWGQGTTVTVSS	2.03	85.3
VHH-1.3-19: VHH-1.3 variant A25V, R38G, R55H, N83K, SEQ ID NO: 204; tested as Fc fusion (protein) VHH: EVQLVESGGGLVQPGGSLRLSCAVSGSTSSIRGIGWYRQAPGKGRELVAHFSSGGGTNYADSVKGRFTISGDKSKNTMYLQMNSLRAEDTAVYYCSARRLLGTSRVDYWGQGTQVTVSS	0.45	130.0
VHH-2.3-1: VHH-2.3 variant D81G, SEQ ID NO: 207; tested as Fc fusion (protein) VHH: EVQLVESGGGLVQPGGSLRLSCAVSGSTSTINRFAWYRQAPGKGRELVAATSSRTSPNYADSVKGRFTFSRGNSKNTVYLQMNSLRAEDTAVYYCQARMAMGSSQVVYWGQGTTVTVSS	0.23	118.3
VHH-2.3-3: VHH-2.3 variant P65L, SEQ ID NO: 209; tested as Fc fusion (protein) VHH: EVQLVESGGGLVQPGGSLRLSCAVSGSTSTINRFAWYRQAPGKGRELVAATSSRTSLNYADSVKGRFTFSRDNSKNTVYLQMNSLRAEDTAVYYCQARMAMGSSQVVYWGQGTTVTVSS	1.7	83.3
VHH-2.3-2: VHH-2.3 variant D81G, M108K, SEQ ID NO: 208; tested as Fc fusion (protein) VHH: EVQLVESGGGLVQPGGSLRLSCAVSGSTSTINRFAWYRQAPGKGRELVAATSSRTSPNYADSVKGRFTFSRGNSKNTVYLQMNSLRAEDTAVYYCQARKAMGSSQVVYWGQGTTVTVSS	0.12	131.9
